This is an account of results in patent publication US9309303B2, “Complexation of fatty acid-conjugated molecules with albumin” (The University of the Sciences in Philadelphia, priority 2007, dated 2016).

Data set [1] has as its target T1, αvβ3 integrin (Homo sapiens, UniProt P05106+P06756).
T1 construct: 300 μg MDA-MD-435S (αvβ3 positive) cell extract; endogenous in cells; host or cells: MDA-MB-435S (printed MDA-MD-435S) cell extract
Description: αvβ3 integrin-binding assay (co-immunoprecipitation / Ni2+ pull-down, Western blotting). Conditions: co-immunoprecipitation and Western blotting.
Description: Lanes 3 and 6 each contained mixture of 300 μg MDA-MD435S cell extract and 1.2 μg of RGD-rHSA (wild type HSA). For the convenience of purification and detection, all rHSAs were fused with c-terminal c-myc and His6 tags. For lane 1, 2, and 3, the αvβ3 complexes were immunoprecipitated with anti-αv antibody (CHEMICON, AB1930). rHSAs associated with αvβ3 were detected by anti-c-myc antibody. […] For lane 4,5, and 6, the poly-HIS-tagged rHSAs were pulled down with Ni2+-charged chelating agarose. αvβ3 Associated with rHSAs was detected by anti-αv antibody (CHEMICON, AB 1930).

Data set [2] is described as follows: esterase assay, p-nitrophenyl acetate hydrolysis. The data set is classed as biochemical. The note with it: 5 μM p-nitrophenyl acetate, 40 μg protein, pH 7.4, 37° C., 390 nm. The procedure:
The reaction of p-nitrophenyl acetate hydrolysis-mediated by rHSA and RGD-rHSA was assessed spectrophotometrically at 390 nm by monitoring the appearance of p-nitrophenol. The reaction mixtures contained 5 μM p-nitrophenyl acetate and 40 μg protein in 67 mM phosphate buffer (pH 7.4). Reactions were performed at 37° C.

Data set [3] is described as follows: solubility of rHSA purified from Pichia pastoris expression system. The format is physicochemical. An excerpt: We cloned, expressed and purified this rHSA from a Pichia pastoris yeast rHSA expression system. The protein was soluble and was purified to apparent homogeneity. We confirmed the identity of the purified protein by Western blotting using anti-HSA antibody and anti-c-Myc antibody. The alpha-v-beta-3 integrin binding ability of RGD-HSA was confirmed by co-immunoprecipitation and Western blotting.

Data set [4] has as its system HeLa cells. Kind of data set: cellular uptake and/or binding of Rhodamine-labeled rHSAs, fluorescent microscopy. The format is cell-based. The note with it: 50 pmol labeled rHSA. The procedure:
It has been reported that there is no αvβ3 type of integrin in HeLa cells. Nonetheless, HeLa cells are still able to bind fibronectin. Similar to the cellular uptake experiments for MDA-MB-435S cells, the fluorescent dye labeled rHSAs (50 pmol for rHSA, RGD-rHSA-FN and RGD-rHSA-4C) were added to cultured HeLa cells (with 250 μl EMEM in 24-well plate). Cellular uptake and/or binding was monitored at 1, 4, and 8 hours after washing with fresh non-labeled medium. Cellular uptake and/or binding of albumin was then visualized using fluorescent microscopy.

In data set [5] the test system is HeLa cells. Description: transfection of HeLa cells with peptides in the presence of HSA. The format is cell-based. The note with it: 250 pmol peptide, 250 pmol HSA. How it is done:
Fatty acid-conjugated faTraF peptides and non-conjugated faTraE peptides (250 pmol) were added to separate batches of HeLa cells (24-well plate with 250 μl of EMEM medium). 250 Pmol of HSA was added to the incubation of some wells, but not others. Cells incubated in the presence of HSA and the fatty-acid conjugated peptides were transfected.

Data set [6] deals with HSA (Homo sapiens, UniProt P02768). Conditions: 25 pmol peptide, 100 pmol defatted HSA, 15 minutes, room temperature.
Description: The reaction mixture was loaded to 0.5×TBE acrylamide gel and separated under 12 mA current.

Ends that are not written are not given here. fluorescein = fluorescein conjugated to the primary amine of the Lys side chain through an MHS ester

T1 sequence (P06756 31-889 limits assumed): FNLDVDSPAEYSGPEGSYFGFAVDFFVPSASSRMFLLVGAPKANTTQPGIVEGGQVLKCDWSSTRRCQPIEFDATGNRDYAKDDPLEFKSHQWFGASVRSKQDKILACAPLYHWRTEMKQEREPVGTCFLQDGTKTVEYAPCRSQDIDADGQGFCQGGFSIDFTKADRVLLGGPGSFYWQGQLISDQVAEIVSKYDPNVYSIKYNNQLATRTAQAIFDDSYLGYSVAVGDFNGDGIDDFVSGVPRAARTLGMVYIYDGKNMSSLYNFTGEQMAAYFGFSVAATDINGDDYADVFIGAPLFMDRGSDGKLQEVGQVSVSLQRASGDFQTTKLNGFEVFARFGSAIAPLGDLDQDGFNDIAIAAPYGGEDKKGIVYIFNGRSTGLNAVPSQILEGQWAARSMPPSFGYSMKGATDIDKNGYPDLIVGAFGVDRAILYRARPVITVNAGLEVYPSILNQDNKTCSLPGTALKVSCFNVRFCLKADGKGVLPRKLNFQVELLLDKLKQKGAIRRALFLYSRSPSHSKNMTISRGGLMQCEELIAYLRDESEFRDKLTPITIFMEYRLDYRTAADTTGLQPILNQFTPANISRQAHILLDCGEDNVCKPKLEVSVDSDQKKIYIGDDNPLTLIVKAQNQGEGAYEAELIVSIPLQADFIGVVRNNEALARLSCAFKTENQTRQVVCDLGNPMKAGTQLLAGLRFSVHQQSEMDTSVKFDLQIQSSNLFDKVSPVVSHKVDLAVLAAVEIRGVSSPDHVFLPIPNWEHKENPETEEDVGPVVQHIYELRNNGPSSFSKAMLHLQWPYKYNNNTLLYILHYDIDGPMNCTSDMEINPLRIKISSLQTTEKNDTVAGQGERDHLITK
T1 sequence (P06756 891-1048 partner limits assumed): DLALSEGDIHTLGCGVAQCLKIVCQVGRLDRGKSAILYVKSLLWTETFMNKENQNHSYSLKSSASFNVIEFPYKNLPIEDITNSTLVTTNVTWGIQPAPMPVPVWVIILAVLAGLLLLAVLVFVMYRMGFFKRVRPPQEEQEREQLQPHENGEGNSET
T1 sequence (P05106 27-788): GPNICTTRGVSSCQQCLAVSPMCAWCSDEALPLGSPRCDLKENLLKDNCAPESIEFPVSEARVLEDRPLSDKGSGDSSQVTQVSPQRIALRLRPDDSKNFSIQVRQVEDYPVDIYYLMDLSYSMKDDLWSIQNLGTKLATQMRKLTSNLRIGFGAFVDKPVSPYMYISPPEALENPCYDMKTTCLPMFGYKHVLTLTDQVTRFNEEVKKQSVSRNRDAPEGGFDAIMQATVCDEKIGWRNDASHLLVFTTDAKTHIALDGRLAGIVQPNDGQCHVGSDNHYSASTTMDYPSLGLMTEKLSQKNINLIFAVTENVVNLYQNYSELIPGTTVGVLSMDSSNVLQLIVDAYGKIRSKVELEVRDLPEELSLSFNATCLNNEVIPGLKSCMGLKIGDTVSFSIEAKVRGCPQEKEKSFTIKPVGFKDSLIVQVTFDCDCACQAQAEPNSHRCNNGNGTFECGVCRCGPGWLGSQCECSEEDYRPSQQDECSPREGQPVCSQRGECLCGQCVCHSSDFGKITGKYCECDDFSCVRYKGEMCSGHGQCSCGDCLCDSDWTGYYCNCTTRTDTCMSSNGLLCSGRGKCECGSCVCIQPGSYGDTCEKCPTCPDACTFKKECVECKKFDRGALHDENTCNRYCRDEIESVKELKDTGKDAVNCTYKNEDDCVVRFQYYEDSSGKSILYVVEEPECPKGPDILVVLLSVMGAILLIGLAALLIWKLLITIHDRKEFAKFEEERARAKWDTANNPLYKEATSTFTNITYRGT

On to “RGD-rHSA-FN: rHSA containing fibronectin RGD sequence (CGRGDSPC) in place of residues 53-62 of HSA”, for which the “αvβ3 integrin binding ability / ability to interact” value in data set [1] was “confirmed”. Besides, the esterase activity result in data set [2] was “comparable”. Besides, the “solubility of purified protein” value in data set [3] is given as “soluble”. For the same substance, the “effect of RGD sequence on albumin uptake and/or binding” value in data set [4] is “mildly stimulated”.
On to “fatty acid-conjugated faTraF peptide: fluorescein-labeled peptide CHLDAHWKG conjugated at Cys thiol with 16-methanethiosulfonyl hexadecanoic acid: HOOC—(CH2)15—S—S-peptide (not fully specified (residue 1); also: fluorescein-labeled (position not given here))”, for which the “transfection of HeLa cells” value in data set [5] was “transfected”. In addition, in data set [6], the “complex with HSA on gel” value is given as “clearly observed”.
For “unmodified peptides: peptide CHLDAHWKG (SEQ ID NO: 58) conjugated with fluorescein at Lys, without fatty acid (CHLDAHWK(fluorescein)G) [reference compound]”, in data set [5], the “transfection of HeLa cells” value was “can not be observed”.
